The source of these data is patent US7329737 (DYAX, dated 2008).

Assay [1] has as its target kallikrein-like activity in sheep urine (tissue kallikrein, K1) (sheep). Kind of assay: cell-based or functional assay.
Another assay addresses T1, Human trypsin (human, UniProt P07477 24-247).
T1 construct: also called Human Pancreatic Trypsin
The experiment in a line: protease inhibition assay, Fab up to 1 µM.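 Note: protease and Fab preincubated 1 h at room temperature, then substrate added, fluorescence plate-reader monitoring of substrate hydrolysis rate.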

For assay [2], the target named is Human Tissue Kallikrein 2 (hK2) (human, UniProt P20151 25-261). The experiment in a line: protease inhibition assay, Fab up to 1 µM.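 Note: protease and Fab preincubated 1 h at room temperature, then substrate added, fluorescence plate-reader monitoring of substrate hydrolysis rate.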
Description: (§1) Selected antibodies were tested for their ability to inhibit other proteases.
(§2) Assays were performed in black, 96 well, round bottomed microplates in a total volume of 100 μL. Enzyme and Fab inhibitor were incubated in the dark at room temperature for 1 hour prior to the addition of the indicated amount of substrate. The rate of enzymatic substrate hydrolysis was then monitored using the Spectramax Gemini XS fluorescence plate reader using the wavelengths listed in Table 3.
The target of the next assay is T2, Human elastase (human, UniProt P08246 30-247).
T2 construct: also called Human Neutrophil Elastase
T2 sequence (looked up): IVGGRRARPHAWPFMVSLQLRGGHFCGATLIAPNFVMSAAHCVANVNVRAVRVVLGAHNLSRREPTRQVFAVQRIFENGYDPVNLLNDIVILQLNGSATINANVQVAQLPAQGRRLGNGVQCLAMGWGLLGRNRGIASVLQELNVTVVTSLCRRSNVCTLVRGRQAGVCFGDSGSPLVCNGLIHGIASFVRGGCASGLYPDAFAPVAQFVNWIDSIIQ
The experiment in a line: protease inhibition assay, Fab up to 1 µM.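 Note: protease and Fab preincubated 1 h at room temperature, then substrate added, fluorescence plate-reader monitoring of substrate hydrolysis rate.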

A further assay deals with Human plasmin (human, UniProt P00747 97-810). Kind of assay: protease inhibition assay, Fab up to 1 µM.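 Note: protease and Fab preincubated 1 h at room temperature, then substrate added, fluorescence plate-reader monitoring of substrate hydrolysis rate.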
The target of a further assay is Human urokinase (human, UniProt P00749 21-431, limits assumed). The experiment in a line: protease inhibition assay, Fab up to 1 µM.
Assay [3] concerns the target T3, Human Tissue Kallikrein 8 (hK8) (human, UniProt O60259 33-260).
T3 sequence (looked up): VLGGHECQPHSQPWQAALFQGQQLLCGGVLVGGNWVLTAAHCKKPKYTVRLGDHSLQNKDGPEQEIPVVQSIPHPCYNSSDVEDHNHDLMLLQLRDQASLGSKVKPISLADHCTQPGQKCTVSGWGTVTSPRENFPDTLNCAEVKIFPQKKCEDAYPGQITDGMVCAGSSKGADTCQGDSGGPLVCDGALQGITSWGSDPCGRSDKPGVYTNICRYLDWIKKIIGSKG
Kind of assay: protease inhibition assay, Fab up to 1 µM.
Description: as §1, §2

In assay [4] the target is Human Tissue Kallikrein 3 (hK3, PSA) (human, UniProt P07288 25-261). Kind of assay: protease inhibition assay, Fab up to 1 µM.
Description: as §1, §2
The target of the next assay is Human thrombin (human, UniProt P00734 328-622). Kind of assay: protease inhibition assay, Fab up to 1 µM.
The target in assay [5] is Human activated protein kinase C (human). The experiment in a line: protease inhibition assay, Fab up to 1 µM.
Description: as §1, §2
The target of another assay is Human plasma kallikrein (human, UniProt P03952 20-638). Kind of assay: protease inhibition assay, Fab up to 1 µM.
In a further assay the target is Human chymotrypsin (human, UniProt P17538 19-263). Kind of assay: protease inhibition assay, Fab up to 1 µM.
For assay [6], the target named is Human Tissue Kallikrein 5 (hK5) (human, UniProt Q9Y337 67-293, limits assumed). Kind of assay: protease inhibition assay, Fab up to 1 µM.
Description: as §1, §2
In assay [7] the target is Human Tissue Kallikrein 4 (hK4) (human, UniProt Q9Y5K2 31-254). The experiment in a line: protease inhibition assay, Fab up to 1 µM.
Description: as §1, §2
The target in assay [8] is T4, hK1 (human tissue kallikrein 1), recombinant (human, UniProt P06870 25-262).
T4 construct: Expressed in P. pastoris from KLK1 cDNA and purified; enzymatically active; also called KLK1; Recombinant (Pichia) Kallikrein
The experiment in a line: SPR. A general note: In SPR one partner is held on a chip, and binding of the other changes the refractive index at the surface.

For assay [9], the target named is T4, hK1 (human tissue kallikrein 1), …. The experiment in a line: cell-based or functional assay.
Assay [10] shares this target. The experiment in a line: SPR, biotinylated hK1 on streptavidin chip; Fab 50 nM after DX-2300 50 nM (competitor DX-2300).
Excerpt: Epitope grouping by SPR. Biotinylated hK1 was captured on a streptavidin coated chip to a final ligand density of 88 RU. […] The signal at the end of the injection of the Fab alone is R2.
Assay [11] has the same target. Kind of assay: enzyme inhibition, tight-binding analysis, noncompetitive; Fab.
Assay [12] has the same target. The experiment in a line: enzyme inhibition, tight-binding analysis, competitive; Fab.

Sequence of Human Tissue Kallikrein 4 (hK4) (Q9Y5K2 31-254 limits assumed): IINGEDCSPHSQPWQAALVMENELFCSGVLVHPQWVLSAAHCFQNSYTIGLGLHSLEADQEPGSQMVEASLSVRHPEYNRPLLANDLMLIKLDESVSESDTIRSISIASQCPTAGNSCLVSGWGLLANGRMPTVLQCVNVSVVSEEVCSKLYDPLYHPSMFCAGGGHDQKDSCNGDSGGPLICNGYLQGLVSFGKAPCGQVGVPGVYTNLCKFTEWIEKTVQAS
Sequence of Human plasmin (P00747 97-810 limits assumed): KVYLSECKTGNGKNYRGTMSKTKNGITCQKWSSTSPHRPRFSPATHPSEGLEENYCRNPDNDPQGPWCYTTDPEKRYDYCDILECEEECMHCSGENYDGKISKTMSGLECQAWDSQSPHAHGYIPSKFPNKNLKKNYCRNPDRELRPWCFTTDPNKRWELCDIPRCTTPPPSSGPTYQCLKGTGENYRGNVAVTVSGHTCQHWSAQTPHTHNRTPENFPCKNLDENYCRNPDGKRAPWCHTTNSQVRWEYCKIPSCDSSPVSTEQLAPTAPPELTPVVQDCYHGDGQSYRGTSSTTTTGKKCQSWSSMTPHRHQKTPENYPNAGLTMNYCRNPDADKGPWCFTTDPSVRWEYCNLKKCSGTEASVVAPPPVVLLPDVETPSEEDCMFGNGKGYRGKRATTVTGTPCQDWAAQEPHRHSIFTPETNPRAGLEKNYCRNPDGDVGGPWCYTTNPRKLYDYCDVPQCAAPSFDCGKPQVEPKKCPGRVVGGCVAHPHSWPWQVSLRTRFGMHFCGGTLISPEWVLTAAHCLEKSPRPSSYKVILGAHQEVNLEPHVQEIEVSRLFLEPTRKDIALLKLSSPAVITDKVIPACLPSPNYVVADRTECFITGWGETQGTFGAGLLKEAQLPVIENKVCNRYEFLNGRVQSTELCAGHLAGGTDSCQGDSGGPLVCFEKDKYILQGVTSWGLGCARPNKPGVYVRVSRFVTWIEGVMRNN
Sequence of Human Tissue Kallikrein 2 (hK2) (P20151 25-261 limits assumed): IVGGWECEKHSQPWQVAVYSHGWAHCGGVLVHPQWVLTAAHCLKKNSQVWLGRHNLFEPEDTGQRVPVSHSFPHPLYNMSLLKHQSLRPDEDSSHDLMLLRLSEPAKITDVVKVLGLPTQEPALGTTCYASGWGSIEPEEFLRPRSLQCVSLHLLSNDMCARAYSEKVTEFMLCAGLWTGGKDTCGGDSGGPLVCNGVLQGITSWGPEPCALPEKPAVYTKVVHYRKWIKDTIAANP
Sequence of Human Tissue Kallikrein 5 (hK5) (Q9Y337 67-293 limits assumed): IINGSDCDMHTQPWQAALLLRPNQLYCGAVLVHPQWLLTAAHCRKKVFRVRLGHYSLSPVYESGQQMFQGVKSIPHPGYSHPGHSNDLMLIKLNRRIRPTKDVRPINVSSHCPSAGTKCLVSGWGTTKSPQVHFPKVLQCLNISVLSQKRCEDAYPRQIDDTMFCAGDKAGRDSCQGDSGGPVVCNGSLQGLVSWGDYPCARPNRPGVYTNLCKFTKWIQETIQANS
Sequence of Human Tissue Kallikrein 3 (hK3, PSA) (P07288 25-261 limits assumed): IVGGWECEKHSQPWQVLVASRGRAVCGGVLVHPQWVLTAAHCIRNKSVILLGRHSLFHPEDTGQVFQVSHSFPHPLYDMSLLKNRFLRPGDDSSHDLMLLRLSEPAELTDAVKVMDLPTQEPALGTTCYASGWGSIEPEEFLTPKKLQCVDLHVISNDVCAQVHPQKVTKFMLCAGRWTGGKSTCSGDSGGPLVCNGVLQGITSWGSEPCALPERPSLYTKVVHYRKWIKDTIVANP
Sequence of Human chymotrypsin (P17538 19-263): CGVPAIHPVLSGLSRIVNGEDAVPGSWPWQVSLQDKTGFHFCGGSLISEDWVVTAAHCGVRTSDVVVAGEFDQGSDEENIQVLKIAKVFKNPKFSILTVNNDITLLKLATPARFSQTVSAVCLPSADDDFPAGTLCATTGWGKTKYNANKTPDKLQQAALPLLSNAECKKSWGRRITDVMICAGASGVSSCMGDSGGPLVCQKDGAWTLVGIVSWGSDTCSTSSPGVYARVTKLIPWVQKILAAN
Sequence of Human plasma kallikrein (P03952 20-638 limits assumed): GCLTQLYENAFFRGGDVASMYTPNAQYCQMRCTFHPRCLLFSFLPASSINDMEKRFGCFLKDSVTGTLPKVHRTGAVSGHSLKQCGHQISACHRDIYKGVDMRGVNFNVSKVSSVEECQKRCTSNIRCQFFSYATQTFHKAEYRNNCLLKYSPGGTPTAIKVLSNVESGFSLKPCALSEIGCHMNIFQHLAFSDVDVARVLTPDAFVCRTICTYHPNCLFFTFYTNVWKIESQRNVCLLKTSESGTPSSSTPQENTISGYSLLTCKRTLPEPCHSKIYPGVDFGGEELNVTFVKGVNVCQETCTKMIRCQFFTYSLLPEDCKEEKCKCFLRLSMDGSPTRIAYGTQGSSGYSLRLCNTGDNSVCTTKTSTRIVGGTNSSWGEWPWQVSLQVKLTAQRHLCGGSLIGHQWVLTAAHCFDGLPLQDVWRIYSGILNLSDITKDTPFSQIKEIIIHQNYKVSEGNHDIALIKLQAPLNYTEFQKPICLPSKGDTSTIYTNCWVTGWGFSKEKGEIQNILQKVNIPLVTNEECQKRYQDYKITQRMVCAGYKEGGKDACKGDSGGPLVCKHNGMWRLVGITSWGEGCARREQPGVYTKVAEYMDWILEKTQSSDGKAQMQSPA
Sequence of Human activated protein kinase C (human) (P04070 43-197, chain 1 of 2): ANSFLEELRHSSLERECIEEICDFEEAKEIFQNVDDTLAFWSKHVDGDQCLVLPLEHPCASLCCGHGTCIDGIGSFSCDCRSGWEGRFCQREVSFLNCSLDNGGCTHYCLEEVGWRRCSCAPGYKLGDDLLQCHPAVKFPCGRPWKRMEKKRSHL
Sequence of Human activated protein kinase C (human) (P04070 212-461, chain 2 of 2): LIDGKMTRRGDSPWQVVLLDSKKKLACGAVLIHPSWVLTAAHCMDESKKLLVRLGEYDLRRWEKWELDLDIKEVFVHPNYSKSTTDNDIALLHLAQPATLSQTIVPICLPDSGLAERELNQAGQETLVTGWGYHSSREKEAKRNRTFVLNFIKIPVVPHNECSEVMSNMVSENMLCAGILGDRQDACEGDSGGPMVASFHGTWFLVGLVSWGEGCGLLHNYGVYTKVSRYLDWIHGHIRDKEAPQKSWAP
Description for Human chymotrypsin: as §1, §2
Description for Human elastase: as §1, §2
Description for Human plasma kallikrein: as §1, §2
Description for Human plasmin: as §1, §2
Description for Human thrombin: as §1, §2
Description for Human trypsin: as §1, §2
Description for Human urokinase: as §1, §2

B1: DX-2300 (format not stated) (antibody, V domains shown)
VH: EVQLLESGGGLVQPGGSLRLSCAASGFTFSKYKMVWVRQAPGKGLEWVSSIYPSGGITAYADSVKGRFTISRDNSKNTLYLQMNSLRAEDTAMYYCAKDITPGGGSGFRLPKNYYYYGMDVWGQGTTVTVSS
VL: not shown
Regarding B1, in [1], the “IC50 of kallikrein-like activity in activated urine (Pro-Phe-Arg-AMC)” value came out at 2.9 nM.

B2: DX-2300 (M0131-F07), Fab (Fab, V domains shown)
VH: B1 VH
VL: not shown
For orientation: Ki means a measure of affinity in units of concentration, obtained from inhibition or displacement. In the case of B2, the Ki (with Human trypsin; in assay [2]; with Human elastase; with Human plasmin; with Human urokinase; in assay [3]) was over 1000 nM throughout. Besides, the Ki (in assay [4]; with Human thrombin; in assay [5]; with Human plasma kallikrein; with Human chymotrypsin; in assay [6]) was over 1000 nM in each case. Moreover, the Ki in [7] is over 1000 nM.

B3: M0093-F09 (Fab, V domains shown)
VH: EVQLLESGGGLVQPGGSLRLSCAASGFTFSDYRMWWVRQAPGKGLEWVSYIVPSGGQTSYADSVKGRFTISRDNSKNTLYLQMNSLRAEDTAVYYCARGSAYQRRTYSSGWYSASGRRGTAEYFQHWGQGTLVTVSS
VL: AQSALTQPASVSGSPGQSITISCTGTSTDDVGGYNYVSWYQQHPGKAPKLMIYDVINRPSGVSNRFSGSKSGNTASLTISGLQAEDEADYYCSSYTSRGTRVFGTGTKVTVLG
notes: also called M093-F09
By Kd is commonly meant the constant that tells how readily two partners part at equilibrium. One may read the koff as the rate constant with which the complex falls apart. One may read the kon as a measure of how fast the partners come together. For the molecule B3, the Kd in assay [8] is 4.66 nM. In addition, in assay [8], the koff was 0.00279 s⁻¹. The kon in assay [8] was determined as 600000 M⁻¹ s⁻¹. Further, the “IC50 (nM), inhibition of hK1 hydrolysis of Pro-Phe-Arg-AMC” value in assay [9] is 2.5 nM. The Ki (in the assay with Human trypsin; in assay [2]; with Human elastase; with Human plasmin; with Human urokinase; in assay [3]) was over 1000 nM throughout. The Ki (in [4]; with Human thrombin; with Human plasma kallikrein; with Human chymotrypsin; in [6]; in [7]) was over 1000 nM each time. Moreover, the inhibitory constant (Ki) in assay [11] came to 1.9 nM. Further, the “Fab Signal following DX-2300 (R1)” value in [10] is 5.9.

B4: M0137-E01 (Fab, V domains shown)
VH: EVQLLESGGGLVQPGGSLRLSCAASGFTFSRYSMTWVRQAPGKGLEWVSSIYPSGGKTTYADSVKGRFTISRDNSKNTLYLQMNSLRAEDTAVYYCASMVAPYYYDSSGYPPAEYFQHWGQGTLVTVSS
VL: AQSELTQPPSASGTPGQRVTISCSGTNSNIGSNSVFWYQQLSGTAAPKVLILRNSQRPSGVSDRFSGSKSGTSASLAISGLRSEDEADYYCATWDDSLRSPVFGGGTKLTVLG
notes: also called M137-E01
As for B4, the Ki in assay [12] was 0.9 nM; with Human trypsin, over 1000 nM; in assay [2] it was over 1000 nM; with Human elastase, over 1000 nM; with Human plasmin, over 1000 nM; with Human urokinase, over 1000 nM. In addition, the Ki (in assay [3]; in assay [4]; with Human thrombin; in assay [5]; with Human plasma kallikrein; in the assay with Human chymotrypsin) was over 1000 nM each time. In addition, the Ki in [6] and in assay [7] was over 1000 nM in each case. Further, in [8], the Kd came out at 1.29 nM. The koff in [8] was found to be 0.000158 s⁻¹. The kon in [8] was 123000 M⁻¹ s⁻¹. In addition, in [9], the “IC50 (nM), inhibition of hK1 hydrolysis of Pro-Phe-Arg-AMC” value came out at 0.4 nM. Besides, in [10], the “Fab Signal following DX-2300 (R1)” value was found to be 20.8.
